Results reported in article PMC9618058, “A genetically encoded system for oxygen generation in living cells” (Proceedings of the National Academy of Sciences of the …, 2022).

Substrate: [O-][Cl+]O
Assay: oxygen evolution in digitonin-permeabilised HeLa cells, optical oxygen meter, initial rates
Type: biochemical, Nitrospira defluvii
Conditions: 20 mM HEPES pH 7.2, 125 mM KCl, 2 mM K2HPO4, 1 mM MgCl2, glutamate, malate, 0.01% digitonin, air-saturated, chlorite 10 μM to 1 mM

B1: FLAG-NdCld (Nitrospira defluvii) (protein)
chain: ADREKLLTESGVYGTFATFQMDHDWWDLPGESRVISVAEVKGLVEQWSGKILVESYLLRGLSDHADLMFRVHARTLSDTQQFLSAFMGTRLGRHLTSGGLLHGVSKKPTYVAGFPESMKTELQVNGESGSRPYAIVIPIKKDAEWWALDQEARTALMQEHTQAALPYLKTVKRKLYHSTGLDDVDFITYFETERLEDFHNLVRALQQVKEFRHNRRFGHPTLLGTMSPLDEILEKFAQ
notes: codon-optimised; N-terminal FLAG kept; expressed in HeLa cells; 29 kDa; runs at 248 kDa (dimer of pentamers)
**Q.** B1 was tested. Which Km did it give?
**A.** 560 µM
